In paper PMC12828721 one finds response data, which are given here for 2 substances.

The target of test [1] is MSLN. In words: BLI (Blitz). The following applies: 800nM trace, read at end of association (about 120 s); parent: est. 0.63; read off a plot.
Test [2] concerns the target murine CD64 (FcγRI) (UniProt P26151). In words: ELISA. The conditions noted are these: highest concentration point (about 1e4 nM); parent: est. 1.2; read off a plot. Background: ELISA stands for enzyme-linked immunosorbent assay.
Test [3] deals with human CD64 (FcγRI) (UniProt P12314). In words: ELISA. The conditions noted are these: highest concentration point (about 500 nM); parent: est. 3.4; read off a plot.
Sequence of UniProt P12314 (P12314 16-374): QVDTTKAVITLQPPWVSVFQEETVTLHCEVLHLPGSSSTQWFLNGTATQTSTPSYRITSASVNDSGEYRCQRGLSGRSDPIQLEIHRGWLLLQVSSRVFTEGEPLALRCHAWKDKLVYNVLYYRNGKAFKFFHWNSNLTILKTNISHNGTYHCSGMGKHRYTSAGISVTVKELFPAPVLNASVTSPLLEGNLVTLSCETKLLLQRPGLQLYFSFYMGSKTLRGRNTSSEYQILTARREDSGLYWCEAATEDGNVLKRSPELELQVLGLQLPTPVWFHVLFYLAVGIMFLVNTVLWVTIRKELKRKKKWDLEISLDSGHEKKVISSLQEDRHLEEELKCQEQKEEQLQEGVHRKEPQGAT

Sequence of UniProt P26151 (P26151 25-404): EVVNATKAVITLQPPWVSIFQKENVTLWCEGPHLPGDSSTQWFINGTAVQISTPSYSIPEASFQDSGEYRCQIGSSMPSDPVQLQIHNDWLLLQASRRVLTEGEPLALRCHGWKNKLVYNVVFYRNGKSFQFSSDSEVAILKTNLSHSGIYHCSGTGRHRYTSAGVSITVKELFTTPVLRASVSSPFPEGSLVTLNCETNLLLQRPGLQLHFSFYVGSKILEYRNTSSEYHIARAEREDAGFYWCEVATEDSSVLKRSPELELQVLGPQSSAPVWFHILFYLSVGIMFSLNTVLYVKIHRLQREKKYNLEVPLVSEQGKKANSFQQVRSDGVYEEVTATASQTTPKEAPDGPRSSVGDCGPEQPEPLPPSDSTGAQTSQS

“2A10-VH-FcWT (from UniProt P01857) G236R; L328R”: the figures for the response in test [1], in test [2] and in test [3] were 0.78 nm, 0.3 OD450 and 0.27 OD450, respectively.

Turning to “2A10-VH-FcWT (from UniProt P01857) L234A; L235A; P329G”, the response in test [1] came out at 0.78 nm; in test [2] it was 0.25 OD450; in test [3], 0.22 OD450.
